For assay [1], the system named is transmigration of B cell depleted PBL / T cells / NK cells across TNF-α/IFN-γ stimulated endothelial cells. In words: B cell dependence of adiponectin inhibition (B cell depletion, B cell supernatants, Brefeldin A, NK cells). The assay is classed as cell-based, human. The conditions noted are these: for effect of B cell supernatants prepared in the presence of Brefeldin A: inhibitor of B cell secretion; for adiponectin inhibition of migration after removal of B cells from PBL: adiponectin 15 μg/ml, B cell depleted PBL. On the procedure: B cells were isolated and incubated in presence or absence of adiponectin at 15 μg/ml. […] For some experiments, B cells were treated with Brefeldin A, an inhibitor of B cell secretion. […] This is shown in FIG. 8, where the data is shown as mean±SEM and is representative of three independent experiments analysed using one-way ANOVA and Bonferroni's multiple comparison post test. ***p<0.001, ns=non-significant.
Refer to FIG. 14. Endothelial cells were cultured in low serum medium and stimulated with TNF-α/IFN-γ for 24 hours in the absence of adiponectin. PBL transmigration was measured after removal of B cells using bead positive selection and after reconstitution with B cells that were isolated using bead negative selection in presence or absence of adiponectin (15 μg/ml). Supernatants from adiponectin-treated B cells or B cell treated with Brefeldin A to block protein secretion were added to PBL.

The test system of assay [2] is PBL or B cell depleted PBL transmigration across IFN-γ/TNF-α treated HUVEC. In words: S1P signalling in PBL transmigration across HUVEC. Type of assay: cell-based, human. How it is done: Refer to FIG. 19. […]. Levels of SPHK1 and SPHK2 mRNA expression determined by real-time PCR of RNA from B cells and HUVEC (part D, n=2). PBL transmigration was measured across IFN-γ/TNF-α treated HUVEC pre-treated with SPHK1 specific inhibitor (5 μM) in presence of […] (10 ng/ml) (part E).

The subject of assay [3] is lymphocyte integrin LFA-1 (CD11a/CD18; αLβ2). In words: LFA-1 affinity sites on memory T cells immobilised on ICAM, activated with IP-10. Type of assay: cell-based. Particulars: IP-10 10 ng/ml, S1P 10 μM, 30 minutes. On the procedure: Refer to FIG. 20. 96 well plates were coated with 50 μg/ml of recombinant ICAM overnight at 4° C. The plate was blocked using PBS 4% BSA for an hour at room temperature and PBL treated with IP-10 (10 ng/ml) and/or S1P (10 μM) were added for 30 minutes. Excess of unbound PBL was washed and PBL were labelled for the intermediate affinity site of the lymphocyte integrin LFA-1 (CD11a/CD18; αLβ2) using the KIM127 antibody (10 ug/ml) and for the high affinity site using antibody 24 (10 ug/ml) at 4° C. The expression of both affinity site was measured on memory T cells using mean fluorescence intensity (MFI). […] Data is a pool of two independent experiments.

The subject of assay [4] is transmigration of peripheral blood lymphocytes (PBL) across TNF-α/IFN-γ stimulated endothelial cells. Briefly: PBL transendothelial migration, static adhesion (transwell) assay. Type of assay: cell-based, human. Particulars: for PBL transmigration: static assay, adiponectin 0.0001-15 μg/ml, peptide 0.001-10 ng/ml, control peptides 10 ng/ml.
Assay [5] concerns PBL migration across TNF-α/IFN-γ stimulated endothelial cells under flow. In words: PBL migration, flow based adhesion assay. The assay is classed as cell-based, human. The conditions noted are these: adiponectin 15 μg/ml. On the procedure: We have been interested in the ability of the adipocyte derived cytokine, adiponectin, to regulate the recruitment of human T cells to inflamed endothelium. […] In our in vitro studies we used static transwell assays, as well as flow based adhesion assays, to track the migration of T cells (which were in crude isolates of peripheral blood lymphocytes [PBL]) across TNF-α and IFN-γ stimulated endothelial cells.
Endothelial cells were cultured in low serum medium and stimulated with TNF-α/IFN-γ for 24 hours in the absence of adiponectin. PBL were isolated and treated with adiponectin at 0.0001 to 15 μg/ml for one hour.
Refer to FIG. 13. Endothelial cells were cultured in low serum medium and stimulated with TNF-α/IFN-γ for 24 hours in the absence of adiponectin. PBL were isolated and treated with adiponectin at 0.0001 to 15 μg/ml for one hour. […] In part (D), compound C, an AMP-kinase inhibitor, was added to PBL at 10 μg/ml for 30 minutes prior to addition of adiponectin at 15 μg/ml for 1 hour. AMPK is a signalling adapter that is required for adiponectin-receptor signalling. […] Data is a pool of at least three independent experiments and were analysed using t-test, one-way ANOVA and Dunnett's multiple comparisons post-test. **[…], ***[…].

Assay [6] deals with PBL from T1D patients across TNF-α/IFN-γ stimulated endothelial cells. In words: Transmigration of PBL from type 1 diabetes patients. Particulars: adiponectin 15 μg/ml one hour or exogenous PEPITEM.
Experimental: Endothelial cells were cultured in low serum medium and stimulated with TNF-α/IFN-γ for 24 hours in absence of adiponectin. […] Data was analysed using t-test and one-way ANOVA and Bonferonni's multiple comparisons post-test. ***p≦1.0001.
Endothelial cells were cultured in low serum medium and stimulated with TNF-α/IFN-γ for 24 hours in the absence of adiponectin. […] Data was analysed using t-test **p<0.01.

Entries after “also recorded” stand apart in the source; their conditions may differ.

`C[C@H]1CCC/C=C/[C@@H]2C[C@H](O)C[C@H]2[C@H](O)/C=C/C(=O)O1` [Brefeldin A, reference compound]: the “effect of B cell supernatants prepared in the presence of Brefeldin A” value in assay [1] is “not able to regulate the migration of T cells”; in assay [1] (listed as Brefeldin-A) it was “this effect was lost”; in assay [1] (listed as Brefeldine A), “lost”.

`CCCCCCCCCCCCC/C=C/[C@@H](O)[C@@H](N)COP(=O)(O)O` [S1P, sphingosine-1-phosphate]: in assay [2] (exogenous S1P 0-100 μM (FIG. 19C)), the “transmigration of B cell depleted PBL pre-treated with S1P” value is recorded as “restores the inhibition of transmigration; also recorded: dose dependently inhibits T cell migration”. Also, in assay [3], the “expression of intermediate (KIM127) and high affinity (antibody 24) sites of LFA-1 on memory T cells (MFI)” value is given as “down-regulated”.

As for `CCCCCCc1cccc(NC(=O)[C@H](N)CCP(=O)(O)O)c1` [W146], in assay [2] (W146 10 μM with PEPITEM (FIG. 19B)), the “effect on PEPITEM inhibition of lymphocyte transmigration” value is reported as “releases lymphocytes from the inhibitory effects of PEPITEM”. In assay [2] (W146 10 μM, adiponectin 15 μg/ml (FIG. 19A)), the “effect on adiponectin inhibition of lymphocyte transmigration” value is reported as “releases lymphocytes from the inhibitory effects of Adiponectin”.

For `c1cc(-c2cnn3cc(-c4ccc(OCCN5CCCCC5)cc4)cnc23)ccn1` [compound C, reference compound], the “effect on adiponectin-induced decrease of PBL transmigration” value in assay [4] (compound C 10 μg/ml on PBL 30 minutes before adiponectin 15 μg/ml 1 hour) is “restored to normal, control levels; also recorded: restored to normal control levels; also recorded: ablated”. Besides, in assay [4] (compound C alone), the “PBL migration in the absence of adiponectin” value is “did not have any effects”.

B1: adiponectin (protein)
chain: ETTTQGPGVLLPLPKGACTGWMAGIPGHPGHNGAPGRDGRDGTPGEKGEKGDPGLIGPKGDIGETGVPGAEGPRGFPGIQGRKGEPGEGAYVYRSAFSVGLETYVTIPNMPIRFTKIFYNQQNHYDGSTGKFHCNIPGLYYFAYHITVYMKDVKVSLFKKDKAMLFTYDQYQENNVDQASGSVLLHLEVGDQVWLQVYGEGERNGLYADNDNDSTFTGFLLYHDTN
notes: adipocyte-derived cytokine, used as positive control
With B1, the “EC50, inhibition of PBL transmigration” value in assay [4] (adiponectin, static adhesion assay, PBL treated one hour, linear regression (FIG. 1B)) stood at 0.94 µg/mL. Further, in assay [4] (adiponectin, static adhesion assay, linear regression (FIG. 13A), read-out: EC50, inhibition of PBL transmigration), the EC50 is approximately 40 nM. For the same molecule, in assay [4] (dermal microvascular endothelium (FIG. 13C)), the “inhibition of PBL transmigration on DMEC” value was “effective”. In assay [4] (endothelial cells from umbilical cord (FIG. 13C)), the “inhibition of PBL transmigration on HUVEC” value is “effective”. The “inhibition of PBL transmigration on HSEC” value in assay [4] (liver sinusoidal endothelial cells (FIG. 13C)) is “effective”. The “inhibition of PBL transmigration on HSAVEC” value in assay [4] (saphenous vein endothelial cells (FIG. 13C)) is given as “not”. Moreover, the PBL transmigration result is “significantly and dose dependently reduced; also recorded: dose dependently blocked” in assay [4]; “induced a decrease of transmigration” in assay [4] (listed as Adiponectin); “significantly reduced lymphocyte migration” in assay [4] (listed as Aq). Further, in assay [5], the “PBL migration in flow based adhesion assay” value is given as “equally effective”. Also, the figures for the “adiponectin inhibition of migration after removal of B cells from PBL” value in assay [1], in assay [1] (listed as Adiponectin) and in assay [1] (listed as Aq) were “lost”, “completely inhibited this response” and “completely inhibited this response”, respectively. Besides, in assay [1] (with adiponectin (FIG. 7B)), the “migration of natural killer cells” value is “not affected”. Besides, the “inhibition of transmigration of PBL from T1D patients” value in assay [6] is “refractory; also recorded: significantly compromised”; in assay [6] (listed as Adiponectin), “lost”.

Values taken from US9839671B2, “Peptide and uses therefor” (University of Birmingham, priority 2012, dated 2017).
